From patent US20100015139A1 come the findings set out here.

In general, IC50 refers to the concentration that inhibits the measured activity by half. High values mean weaker potency, low ones greater potency. The term Kd denotes a measure of binding affinity in units of concentration. A lower Kd goes with a tighter complex.

Experiment [1] addresses human factor B (human) (UniProt P00751). The experiment can be described thus: competition ELISA; Anti-Ba varied, factor B binding to properdin-bound C3b on plates.
In experiment [2] the target is Ba protein (Ba fragment of factor B) (human) (UniProt P00751). As to the kind of experiment: ELISA; antibody titrated on Ba-coated wells. For orientation: In an ELISA, binding on a coated surface is turned into a signal by an enzyme label.
The target of experiment [3] is human factor B (human) (UniProt P00751). The experiment can be described thus: competition ELISA; Anti-Ba varied, factor B binding to C3b or properdin-bound C3b; range told for both formats.
For experiment [4] the target is unchanged. As to the kind of experiment: competition ELISA; Anti-Ba varied, factor B binding to C3b-coated plates.
Experiment [5] has the same target. The experiment can be described thus: cell-based or functional assay.

human factor B (human), sequence (P00751 other isoform, or with tags, fused parts or gaps limits assumed): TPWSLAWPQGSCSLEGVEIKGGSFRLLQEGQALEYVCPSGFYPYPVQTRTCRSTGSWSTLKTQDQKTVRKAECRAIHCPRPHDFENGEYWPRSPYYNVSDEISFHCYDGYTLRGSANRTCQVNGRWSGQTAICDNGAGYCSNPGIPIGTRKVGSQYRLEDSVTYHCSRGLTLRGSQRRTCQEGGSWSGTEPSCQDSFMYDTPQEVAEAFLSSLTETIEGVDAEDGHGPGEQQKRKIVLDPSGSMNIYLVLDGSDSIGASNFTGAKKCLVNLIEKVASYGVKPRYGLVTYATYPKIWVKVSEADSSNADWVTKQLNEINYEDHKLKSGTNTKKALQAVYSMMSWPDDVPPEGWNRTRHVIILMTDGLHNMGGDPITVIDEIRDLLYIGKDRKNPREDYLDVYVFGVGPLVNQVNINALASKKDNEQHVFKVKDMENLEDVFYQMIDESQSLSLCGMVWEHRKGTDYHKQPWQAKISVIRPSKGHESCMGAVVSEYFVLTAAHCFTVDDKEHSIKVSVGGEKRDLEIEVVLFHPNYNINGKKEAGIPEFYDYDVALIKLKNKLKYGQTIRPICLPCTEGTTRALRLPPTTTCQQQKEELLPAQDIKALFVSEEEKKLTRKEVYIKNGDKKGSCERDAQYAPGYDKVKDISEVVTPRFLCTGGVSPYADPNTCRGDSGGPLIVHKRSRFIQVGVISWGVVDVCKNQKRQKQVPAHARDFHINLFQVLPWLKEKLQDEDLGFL
Ba protein (Ba fragment of factor B) (human), sequence (P00751 other isoform, or with tags, fused parts or gaps limits assumed): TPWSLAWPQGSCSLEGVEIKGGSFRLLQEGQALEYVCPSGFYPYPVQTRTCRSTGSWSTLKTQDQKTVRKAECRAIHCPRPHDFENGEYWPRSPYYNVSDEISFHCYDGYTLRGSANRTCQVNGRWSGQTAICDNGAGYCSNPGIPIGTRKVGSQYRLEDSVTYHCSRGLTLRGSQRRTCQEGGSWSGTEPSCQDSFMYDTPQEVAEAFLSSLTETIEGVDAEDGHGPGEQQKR

For “anti-factor Ba monoclonal antibody (Quidel A225, murine)”, the results for the IC50 with human factor B (human) [1], with human factor B (human) [3] and in the experiment with human factor B (human) [4] were 234 nM, 200 to 500 nM and 556 nM, respectively. This substance displayed a Kd in experiment [2] of 9.65 nM. For the same substance, the Inhibition of C5b-9 formation in normal human serum on LPS coated plates (AP dependent C3-convertase formation) with human factor B (human) [5] is 527 nM. In the experiment with human factor B (human) [5], this substance gave an Inhibition of alternative pathway-dependent hemolysis of rabbit erythrocytes in 10% normal human serum of 125 µg/mL.
